The target in data set [1] is coagulation factor VIIa (FVIIa) (UniProt P08709;P08709 P08709:61-212,P08709:213-466). The data set can be described thus: competition; physiologic conditions.
The target in data set [2] is T1, angiopoietin-2 (Ang2) (UniProt O15123 O15123:19-496).
For data set [3], the target named is T1, angiopoietin-2 (Ang2). The data set can be described thus: FIG. 27 gives <10 nM; about 1 nM in competition (FIG. 29).
In data set [4] the target is T2, coagulation factor IX (FIX) (UniProt P00740 P00740:47-461). Nature of the data set: ±0.7.
Data set [5] addresses T3, coagulation factor IXa (FIXa) (UniProt P00740;P00740 P00740:47-191,P00740:227-461). Nature of the data set: filter; ±0.2; 500-700 pM in Table 1.
For data set [6], the target named is T4, thrombin (F2) (human, UniProt P00734;P00734 P00734:328-363,P00734:364-622).
The target of data set [7] is T2, coagulation factor IX (FIX). Nature of the data set: ±0.8; p287 gives about 6 to 10 nM. The note with it: stem-loop.
Data set [8] has as its target T3, coagulation factor IXa (FIXa). Nature of the data set: ±0.05; p287 gives about 1 to 3 nM. The note with it: stem-loop.
The target is the same in data set [9]. The data set can be described thus: competition; cholesterol has modest effect on affinity.
In data set [10] the target is T4, thrombin (F2). The data set can be described thus: filter; ±0.7.

Read-outs that look alike come from different tables or passages of the source.

As a reminder, the Kd is a measure of binding affinity in units of concentration. A low value points to tighter binding.

B1: 10.15 (ssRNA)
RNA: GGGAGAGAGGAAGAGGGAUGGGAAGCUCCAUCCAAGCGACGACACGCUCGUCCCGAAAAGAAUCAUAACCCAGAGGUCGAU
modifications: 2'-F pyrimidines
Take B1: the Kd in [1] was ~6.33 nM.

B2: Ang2 aptamer 9-5 (ssRNA)
RNA: GGGAGGACGAUGCGGCGAUCUUUUCGUCAACCGCACGUUGAACUCGGCUCGGCACCAGACGACUCGCUGAGGAUCCGAGA
modifications: 2'-F
With B2, in data set [2], the Kd was ~5 nM.

B3: ANG11-1 (ssRNA)
RNA: GGGAGGACGAUGCGGACUAGCCUCAUCAGCUCAUGUGCCCCUCCGCCUGGAUCACCAGACGACUCGCUGAGGAUCCGAGA
modifications: 2'-F
As to B3, in data set [3], the Kd is ~5 nM.

B4: RNA 9.3 (ssRNA)
RNA: GGGAGAGAGGAAGAGGGAUGGGGACUAUACCGCGUAAUGCUGCCUCCCCAUUCCGGAACGCUCAUAACCCAGAGGUCGAUAGUACUGGAUCCCCCC
modifications: 2'-F pyrimidines
B4: the Kd was 3.96 nM in [4] and 0.65 nM in data set [5].
Turning to GGGAACAAAGCUGAAGAACUUACCC (ssRNA) [TOG 25 short loop U2], in data set [6], the dissociation constant Kd was ~1 nM.
AUGGGGACUAUACCGCGUAAUGCUGCCUCCCCAU (ssRNA) [9.3t]: the Kd in [7] came to 4.7 nM; in data set [8], 0.58 nM.
In the case of AUGGGGACUAUACCGCGUAAUGCUGCCUCCCCAU (ssRNA, 5' cholesterol) [9.3t-C], the binding result in [9] is listed as “binds”.

B5: TOG 25 (TOGGLE-25) (ssRNA)
RNA: GGGAGAGAGGAAGAGGGAUGGGGAACAAAGCUGAAGUACUUACCCAAGAUCAUCCCGAACGACAUAACCCAGAGGUCGAUAGUACUGGAUCCCCCC
B5 registered a Kd in [10] of 2.8 nM.
Take GGGAACAAAGCAGAAGUACUUACCC (ssRNA) [TOG 25 short loop U1]: the equilibrium dissociation constant (Kd) in data set [6] is ~250 nM.

B6: Ang2 aptamer 11-3 (ssRNA)
RNA: GGGAGGACGAUGCGGUUAACCAUCAGCUCAUGGCCCCUGCCCUCUCAAGGACCACCAGACGACUCGCUGAGGAUCCGAGA
modifications: 2'-F
For B6, the dissociation constant (Kd) in data set [2] is ~10 nM.

The record behind these values is US20030175703, “RNA aptamers and methods for identifying the same” (published 2003).
